Test results reported in PMC2873993, “Comparative Therapeutic Effects of Velaglucerase Alfa and Imiglucerase in a Gaucher Disease Mouse Model” (PLoS ONE, 2010).

What was measured:
[1] = mouse, in vivo, iv
[2] = tested on: patients; conditions: human, in vivo; cited from earlier work
[3] = Activation of GCase by BPS in detergent-free system; type: biochemical
Description: (§1) Activation of Vela and Imig by the negatively charged lipid, BPS, and saposin C was determined in a detergent-free system with varying concentrations of either agent. The activities of both enzymes increased by 5- to 6-fold or 15- to 17-fold with saposin C (0 to 500 nM) or BPS (0 to 2 µM), respectively. […] Similarly, in the absence of saposin C, both enzymes reacted maximal activation with 0.5 µM of BPS. No significant differences were found in these responses (p = 0.5875–0.8473).
(§2) Vela and Imig were compared for kinetic properties as described. Briefly, the standard GCase activity assay contained final concentrations of 50 mM citrate/phosphate, pH 5.5, 0.25% TC, 0.25% TX, and 4 mM 4MU-Glc in 200 µl. The reactions were stopped after incubation (30–60 min, 37°C) using 0.9 M ethylenediamine, pH 11.0 (100 µl). Standard curves for 4-MU fluorescence yield were generated for each assay with Ex/Em 460/515 nm (Molecular Dynamics SpectraMax GeminXS spectrofluorometer). […] For the reversible competitive inhibitors, Ki was calculated from IC50 = Ki (1+ [I]/[Km]). The IC50 or Ki values for various inhibitors (dNM and its derivatives, CBE, CS, IFG, DNPFG) were determined using 4MU-Glc as substrate. Activities with the NBD-GC substrate were as described. Enzyme assays with saposin C (0–500 nM/0.5 µM BPS) and BPS (0–2 µM) were as described, [40]. Saposin C was expressed in E. coli and purified as described. For thermostability assessments, equal amounts of Vela and Imig activities were added to 50 mM citrate/phosphate, pH 7.4, with or without human/mouse serum, and incubated for 0–240 min at 25 or 37°C. The pH optimum profiles were developed using 50 mM citrate/phosphate, pH 4.4–7.2. Protease susceptibilities of the two GCases were evaluated by cathepsin D (1–2 µM) digestion in 25 mM sodium acetate, pH 4.8, 50 mM NaCl, 1.25 mM EDTA, 1.25 mM DTT using 200 ng of Vela or Imig at 37°C for 4 h. All assays were conducted in triplicate and repeated at least twice. The amounts of intact enzyme were determined from density measurements on immunoblots and were compared to the initial amounts. The ratios of intact enzyme with and without cathepsin D were used as indicators of the enzyme's proteolytic susceptibility.

[4] = tested on: 9 V/null mice; conditions: mouse, in vivo
[5] = biological target: T1, saposin C (Homo sapiens, UniProt P07602); experiment: Activation of GCase by saposin C in detergent-free system; type: biochemical
T1 construct: Saposin C was expressed in E. coli and purified as described [40]; made in house; host or cells: E. coli
T1 sequence (P07602 311-390 limits assumed): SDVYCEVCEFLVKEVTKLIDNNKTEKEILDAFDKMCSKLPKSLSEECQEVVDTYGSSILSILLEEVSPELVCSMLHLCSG
Description: as §1, §2

[6] = tested on: 9 V/null mice; experiment: Storage cell quantification in liver and lung; type: in vivo, mouse; conditions: any dose
Text: Mice were sacrificed one week after the last injection, and sera and organs were collected for serologic studies, GCase activities, GC levels, and quantification of storage cells. At one week after the last injection, the GCase activities in liver, spleen, and lung had returned to background levels (not shown).
Mice were anesthetized with isoflurane.
Duplicate tissue sections were fixed in 10% formalin for hematoxylin and eosin (H&E) staining and in 4% paraformaldehyde-PBS, pH 7.4 for immunohistochemistry with CD68 antibody and examined using a Zeiss microscope equipped with SPOT Advance software (SPOT Diagnostic Instruments, Inc.). […] Mice (n = 6–14) in the Vela-, Imig-, or saline-treated groups were used, and the resultant data were analyzed using the Student's t-test.

[7] = mouse, in vivo
[8] = GCase activity assay with 4MU-Glc substrate; type: biochemical; conditions: n = 6
Description: as §2

B1: imiglucerase (protein)
chain: ARPCIPKSFGYSSVVCVCNATYCDSFDPPTFPALGTFSRYESTRSGRRMELSMGPIQANHTGTGLLLTLQPEQKFQKVKGFGGAMTDAAALNILALSPPAQNLLLKSYFSEEGIGYNIIRVPMASCDFSIRTYTYADTPDDFQLHNFSLPEEDTKLKIPLIHRALQLAQRPVSLLASPWTSPTWLKTNGAVNGKGSLKGQPGDIYHQTWARYFVKFLDAYAEHKLQFWAVTAENEPSAGLLSGYPFQCLGFTPEHQRDFIARDLGPTLANSTHHNVRLLMLDDQRLLLPHWAKVVLTDPEAAKYVHGIAVHWYLDFLAPAKATLGETHRLFPNTMLFASEACVGSKFWEQSVRLGSWDRGMQYSHSIITNLLYHVVGWTDWNLALNPEGGPNWVRNFVDSPIIVDITKDTFYKQPMFYHLGHFSKFIPEGSQRVGLVASQKNDLDAVALMHPDGSAVVVVLNRSSKDVPLTIKDPAVGFLETISPGYSIHTYLWHRQ
modifications: short N-linked oligosaccharide chains with ~3 exposed α-mannosyl residues
serum activity by 20 min post-injection [1]: < 10 % of the 2-min values | t½ of GCase CRIM disappearance in serum [1]: ~0.217 h | t½ of clearance of GCase activity in serum [1]: 8 to 11 min | catalytic value (CRIM-SA) of intact enzyme remaining in serum by 20 min ([1]; 20 min): < 10 % of its original catalytic value | documented IgE-mediated or anaphylactic reactions [2]: < 1% | patients who developed an IgG antibody response [2]: 13–15% | increase of activity with BPS ([3]; BPS 0 to 2 µM, detergent-free): 15- to 17 fold | BPS concentration of maximal activation ([3]; in the absence of saposin C): 0.5 µM | injected mice with increased serum anti-GCase IgG [4]: > 50% | saposin C concentration of maximum activation ([5]; in the presence of 0.5 µM BPS): 200 nM | increase of activity with saposin C ([5]; saposin C 0 to 500 nM, detergent-free): 5- to 6 fold | numbers of storage cells in lungs (CD68) [6]: not different from saline control | time liver activity remained at ≥WT level [7]: ~180 min | decrease of spleen enzyme activity by 40 min ([7]; iv): ~40% | enzyme localized to the liver interstitial cells ([7]; iv): ≥ 80% | enzyme recovered in spleens and lungs ([7]; iv): < 5% | injected enzyme recovered from the liver ([7]; iv): ≥ 60% | peak spleen activity lower than in 20-wk mice ([7]; iv): 2- to 3 fold | t½ of CRIM disappearance in liver ([7]; iv): 1.5 to 1.83 h | t½ of CRIM levels in spleen ([7]; iv): ~1 h | t½ of GCase activity disappearance in liver ([7]; iv): ~1.67 h | t½ of GCase protein disappearance in spleen ([7]; iv): 1.0 to 1.5 h | t½ of activity disappearance in liver ([7]; iv): about 60 min | GCase activity, 4MU-Glc ([8]; mean ± SE): 966,000±8,467 nmole/h/mg | Km [8]: 1650 ± 250 µM
